Read-outs that look alike come from different tables or passages of the source.
Legend:
PKR (Homo sapiens) = PKR (Homo sapiens) (UniProt P19525); conditions: cited from earlier work
AUC [1] = target: the molecule itself; assay: AUC
AUC [2] = target: the molecule itself; assay: AUC; remark: listed apart in the source

PKR (from UniProt P19525)
Kd (PKR (Homo sapiens)): 500 µM

B1: PKRΔV (human PKR with the variable region of the interdomain linker deleted) (enzyme, UniProt P19525 1-551, looked up)
chain: MAGDLSAGFFMEELNTYRQKQGVVLKYQELPNSGPPHDRRFTFQVIIDGREFPEGEGRSKKEAKNAAAKLAVEILNKEKKAVSPLLLTTTNSSEGLSMGNYIGLINRIAQKKRLTVNYEQCASGVHGPEGFHYKCKMGQKEYSIGTGSTKQEAKQLAAKLAYLQILMNGLRNNQRKAKRSLAPRFDLPDMKETKYTVDKRFGMDFKEIELIGSGGFGQVFKAKHRIDGKTYVIKRVKYNNEKAEREVKALAKLDHVNIVHYNGCWDGFDYDPETSDDSLESSDYDPENSKNSSRSKTKCLFIQMEFCDKGTLEQWIEKRRGEKLDKVLALELFEQITKGVDYIHSKKLIHRDLKPSNIFLVDTKQVKIGDFGLVTSLKNDGKRTRSKGTLRYMSPEQISSQDYGKEVDLYALGLILAELLHVCDTAFETSKFFTDLRDGIISDIFDKKEKTLLQKLLSKKPEDRPNTSEILRTLTVWKKSPEKNERHTC
Kd (AUC [1]): 1100 µM | stoichiometry N (AUC [1]): 2

B2: PKRΔVB (human PKR with the whole interdomain linker, variable and basic regions, deleted) (enzyme, UniProt P19525 1-551, looked up)
chain: MAGDLSAGFFMEELNTYRQKQGVVLKYQELPNSGPPHDRRFTFQVIIDGREFPEGEGRSKKEAKNAAAKLAVEILNKEKKAVSPLLLTTTNSSEGLSMGNYIGLINRIAQKKRLTVNYEQCASGVHGPEGFHYKCKMGQKEYSIGTGSTKQEAKQLAAKLAYLQILETKYTVDKRFGMDFKEIELIGSGGFGQVFKAKHRIDGKTYVIKRVKYNNEKAEREVKALAKLDHVNIVHYNGCWDGFDYDPETSDDSLESSDYDPENSKNSSRSKTKCLFIQMEFCDKGTLEQWIEKRRGEKLDKVLALELFEQITKGVDYIHSKKLIHRDLKPSNIFLVDTKQVKIGDFGLVTSLKNDGKRTRSKGTLRYMSPEQISSQDYGKEVDLYALGLILAELLHVCDTAFETSKFFTDLRDGIISDIFDKKEKTLLQKLLSKKPEDRPNTSEILRTLTVWKKSPEKNERHTC
Kd (AUC [2]): 1730 µM | stoichiometry N (AUC [2]): 2

Reference: publication PMC4718896 (Biochemistry, 2015)
